This note sets out measurements from patent publication US20200062829A1 (PANASONIC INTELLECTUAL PROPERTY MANAGEMENT, published 2020).

As usually defined, the koff is the rate constant with which the complex falls apart. The term Kd denotes the concentration at which binding is half-saturated. Broadly, the kon is the second-order rate constant of association.

In the assay the target is T1, VLP noro antigen derived from the norovirus GII/4, composed by associating 90 dimers of VP1 each including … (norovirus GII/4, UniProt P54635 1-539).
T1 construct: Virus-like particle of 90 VP1 dimers (180 copies); also called solid phase VLP
T1 chain: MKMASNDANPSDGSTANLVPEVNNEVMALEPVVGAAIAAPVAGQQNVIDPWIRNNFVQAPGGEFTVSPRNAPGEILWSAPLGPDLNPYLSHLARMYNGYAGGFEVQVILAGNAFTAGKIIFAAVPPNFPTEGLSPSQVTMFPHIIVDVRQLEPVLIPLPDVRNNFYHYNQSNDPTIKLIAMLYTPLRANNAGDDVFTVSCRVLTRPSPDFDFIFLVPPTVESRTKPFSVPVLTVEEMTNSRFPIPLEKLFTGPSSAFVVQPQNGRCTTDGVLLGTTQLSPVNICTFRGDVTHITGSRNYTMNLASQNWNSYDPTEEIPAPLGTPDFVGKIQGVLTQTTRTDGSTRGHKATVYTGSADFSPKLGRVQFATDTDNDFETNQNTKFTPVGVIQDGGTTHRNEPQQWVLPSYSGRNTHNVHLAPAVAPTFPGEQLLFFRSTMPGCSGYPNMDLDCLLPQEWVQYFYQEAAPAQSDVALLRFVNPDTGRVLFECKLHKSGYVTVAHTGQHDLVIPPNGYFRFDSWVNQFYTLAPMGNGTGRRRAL
Briefly: SPR (T200, CM3), VLP noro antigen immobilised, antibody as analyte.

B1: VHH antibody consisting of the amino acid sequence represented by SEQ ID NO: 67 (monomer antibody; includes the structural domain SEQ ID NO: 39) (VHH)
VHH: QLQLVESGGGLVQAGGSLRLSCVASGFPFASSAMAWFRQAPGKEREFVASISYRGITTYYAQPVKGRFTMSRDNAKNTVYLQMNSLKPEDTAVYYCYAKSIWGNAYWGQGTQVTVSP
notes: also called Monomer Antibody 67
For the molecule B1, the koff came to 0.0194 s⁻¹.

B2: Antibody bound to the protein represented by SEQ ID NO: 100 (structural domain SEQ ID NO: 38 - linker - protein molecule SEQ ID NO: 44) (VHH)
chain: QVQLVESGGGVVQTGGSLRLSCAASGSTFSIGAMGWYRQAPGKQRELVATVNRASRTIYADSVRGRFTISRDNAKNLVYLQMNNLKPEDTAVYYCNVIATSASGRGVTSTSWGQGSQVTVSSGGGGSGGGASGGGGSQVQLVESGGGLVQAGKSLRLSCTASGSIPSIGVMGWHRQAPGKQRELVATISQGGHINYFESVKGRFTISRDNAKNTVYLQMNSLKPEDTGVYYCNAFWLPLRLNDYWGQGTQVTVSSEPKTPKPQSASAA
notes: tags not described
As to B2, binding was characterised by a dissociation constant (Kd) of 2.38 nM, the off-rate (koff) is 0.00698 s⁻¹ and the kon was found to be 2.93e+06 M⁻¹ s⁻¹.

B3: Antibody bound to the protein represented by SEQ ID NO: 102 (N to C: protein molecule SEQ ID NO: 44 - linker - structural domain SEQ ID NO: 39) (VHH)
chain: QVQLVESGGGLVQAGKSLRLSCTASGSIPSIGVMGWHRQAPGKQRELVATISQGGHINYFESVKGRFTISRDNAKNTVYLQMNSLKPEDTGVYYCNAFWLPLRLNDYWGQGTQVTVSSGGGGSGGGASGGGGSQLQLVESGGGLVQAGGSLRLSCVASGFPFASSAMAWFRQAPGKEREFVASISYRGITTYYAQPVKGRFTMSRDNAKNTVYLQMNSLKPEDTAVYYCYAKSIWGNAYWGQGTQVTVSPEPKTPKPQSASAA
notes: One chain; Made in E. coli; tags not described
On to B3, for which binding was characterised by a dissociation constant (Kd) of 10.2 nM, the off-rate constant (koff) turned out to be 0.0109 s⁻¹ and the on-rate (kon) is 1.07e+06 M⁻¹ s⁻¹.
